Experimental data reported in US20220098328A1, “ANTIBODIES TO M(H)DM2/4 AND THEIR USE IN DIAGNOSING AND TREATING CANCER” (NomoCan Pharmaceuticals LLC, priority 2017, published 2022).
“Also recorded” adds a separate entry of the source. Values belong to the molecule of their own block, whether it stands above or below them.

Assays:
[1] = target: NMC-P2 peptide (SEQ ID NO:2), amino acids 15-25 of HDM2 (Homo sapiens, UniProt Q00987); assay: Peptide-ELISA; type: binding; settings: 5 μg/ml peptide on plate, OD 450 nm
Method: (§1) Peptide-ELISA Methodology: 5 μg/ml of NMC-P1, NMC-P2 or NMC-P3 peptide antigen was dried onto a 96-well ELISA plate overnight. Plates were then blocked with 5% BSA in 1× phosphate-buffered saline (PBS) (100 μl/well) for 2 hours at room temperature. Microplate wells were then washed 5 times with 300 μl of ice cold 1×PBS. Appropriate dilutions of monoclonal antibodies NMC-103, NMC-204 or NMC-303 in 1% bovine serum albumin (BSA) in PBS solution were then incubated with their corresponding peptides (NMC-P1, NMC-P2 or NMC-P3, respectively) at room temperature. After 2 hours, wells were washed 5 times with 300 μl ice-cold PBS/well and 100 μl secondary antibody (HRP-labeled Goat anti-Mouse F(ab′)2 H&L cross-adsorbed secondary antibody (HRP-GaM F(ab′)2), ThermoFisher, Cat. No. A24524) diluted 1:2500 to 1:5000 in PBS-1% BSA solution were added and the incubation continued at room temperature. After 1 hour, the wells were washed again 5 times with 200 μl of ice-cold PBS and 50 μL of the TMB Substrate Solution (1-Step™ Ultra TMB-ELISA, ThermoFisher, Cat. No. 34028) were added to each well and color was allowed to develop for 30 minutes at room temperature. The reaction was stopped by addition of 50 μL of stop solution (ThermoFisher, Cat. No. SS04) to each well and absorbance of each well was read immediately for optical density (OD) at 450 nm.

[2] = target: NMC-P1 peptide (SEQ ID NO:1), amino acids 1-15 of HDM2 (Homo sapiens, UniProt Q00987); assay: Peptide-ELISA; type: binding; settings: for binding to NMC-P1 peptide: peptide-ELISA, 5 μg/ml peptide on plate, OD 450 nm
Method: as §1
Competition assays: As for peptide antigen binding competition experiments, […] of mAb NMC-103 was pre-incubated with 10 μl/ml of NMC-P1, NMC-P2 or NMC-P3 for 1 hour at room temperature. MAb NMC-103 was then incubated with ELISA plates coated with NMC-P1 as described above.

[3] = tested on: human uveal melanoma 92.1 cells; assay: Cell-ELISA on intact cells; type: cell-based; settings: mAb 1 μg/mL, fixed, non-permeabilized cells
Method: (§2) Cell-ELISA Methodology: 8,000-10,000 cells/well of a 96-well microplate were grown overnight. The next day, unbound cells were washed off with sterile 1×PBS. The cells in each well were fixed with freshly prepared 4% buffered paraformaldehyde (pH 7.2) for 1 hour followed by 3 washes with 1×PBS. The wells were then blocked with 5% BSA in PBS (100 μl/well) for 2 hours at room temperature. Microplate wells were then washed 5 times with 300 μl of ice cold 1×PBS. MAbs NMC-103, NMC-204 or NMC-303 at 1 μg/mL in 1% BSA/PBS were then incubated with various cancer or normal untransformed cells for 2 hours at room temperature. Wells were then washed with 300 μl of ice-cold 1×PBS for 5 times and corresponding secondary antibody HRP-GaM F(ab′)2 diluted 1:2500 or 1:5000 in PBS with 1% BSA were added at 100 μl/well for 1 hour at room temperature followed by washing 5 times with 300 μl of ice-cold 1×PBS. TMB Substrate Solution (1-Step™ Ultra TMB-ELISA, ThermoFisher, Cat. No. 34028) was then added at 50 μL to each microplate well and incubated at room temperature for 30 minutes. The reaction was stopped by addition of 50 μL of stop solution (ThermoFisher, Cat. No. SS04) to each well and absorbance of each well was measured at OD450 nm. The absorbance value of each experimental well was corrected for the absorbance value obtained from wells treated with isotype-identical mAbs included in each experiment. The results are thus expressed as “relative binding”.

[4] = tested on: normal human peripheral blood mononuclear cells (PBMCs); assay: Cell-ELISA on intact cells; type: cell-based; settings: freshly isolated normal human PBMCs
Method: as §2

[5] = tested on: human triple negative breast cancer HCC1806 cells; assay: Cell-ELISA on intact cells; type: cell-based; settings: mAb 1 μg/mL, fixed, non-permeabilized cells
Method: as §2

[6] = target: T1, recombinant HDM2 protein (GST tagged) (Homo sapiens, UniProt Q00987); assay: Western blot (immunoblot); type: binding; settings: 1 μg/well protein, antibody 1 μg/ml; band at approximately 83 kD
T1 construct: NMC-103, NMC-204 and NMC-303 reacted with the recombinant full-length HDM2 protein; purchased Abcam ab188727
Method: Western Blot: As for immunoblots, 1 μg/well of recombinant HDM2 protein (GST tagged, Abcam, Cat. No. ab188727) was separated on 8-16% sodium dodecyl sulfate (SDS) polyacrylamide gel and proteins were then transferred to polyvinylidene difluoride (PVDF) membrane. The membrane was blocked with 5% milk followed by incubation with monoclonal antibody NMC-103, NMC-204 or NMC-303 at 1 μg/ml in 1% milk in PBS for 2 hours. The membrane was then washed ×3 times (10 minutes each) and incubated for 1 hour with corresponding HRP-conjugated secondary antibody (Goat anti-Mouse IgG (H&L), F(ab′)2 Frag Cross-adsorbed HRP (HRP-GaM F(ab′)2), ThermoFisher, Cat. No. A24524) diluted 1:5000 in 1% BSA-PBS. The membrane was then washed ×3 times and incubated with Pierce ECL Plus Western Blotting Substrate (ThermoFisher, Cat. No. #32132) for 10 min before developing on a LICOR Scanner.

[7] = competition: 1 μl/ml mAb pre-incubated with 10 μl/ml peptide for 1 hour

T1 sequence (Q00987 whole entry): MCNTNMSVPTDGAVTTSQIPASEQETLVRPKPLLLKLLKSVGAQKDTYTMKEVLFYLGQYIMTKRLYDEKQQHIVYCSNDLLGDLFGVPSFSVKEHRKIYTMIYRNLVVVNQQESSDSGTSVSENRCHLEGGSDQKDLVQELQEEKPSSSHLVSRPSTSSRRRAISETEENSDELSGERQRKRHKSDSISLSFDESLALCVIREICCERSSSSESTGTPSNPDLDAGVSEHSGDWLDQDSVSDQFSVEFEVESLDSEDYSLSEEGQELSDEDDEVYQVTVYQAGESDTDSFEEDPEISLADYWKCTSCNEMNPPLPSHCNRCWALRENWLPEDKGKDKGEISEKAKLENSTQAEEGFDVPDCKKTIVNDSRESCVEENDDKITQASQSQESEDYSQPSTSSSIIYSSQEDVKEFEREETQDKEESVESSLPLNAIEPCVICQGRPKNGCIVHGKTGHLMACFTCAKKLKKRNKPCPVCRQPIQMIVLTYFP

B1: NMC-103: mouse monoclonal antibody of the IgG1 isotype that binds to NMC-P1 (SEQ ID NO:1); VH SEQ ID NO:36, VL SEQ ID NO:37 (antibody, V domains shown)
VH: EVQLQESGGGLVQPGGSLRLSCTTSGFTFTHYYMSWVRQPPGKALEWLGFIRNKAKGYTAEYSASVKGRFTISRDNSQSILYLQMNTLRPEDSATYYCARDIGDNWGQGTLVTVSS
VL: DIVMTQAAFSNPVTLGTSASISCRSSKNLLHSNGITYLYWYLQRPGQSPQLLISRVSNLASGVPNRFSGSESGTDFTLRISRVEAEDVGVYFCAQLLELPYTFGGGTKLEIK
modifications: mAb NMC-103 Heavy Chain Variable Region; mAb NMC-103 Light Chain Variable Region
binding to NMC-P2 peptide [1]: did not bind | binding of mAb to plate-bound NMC-P1 after pre-incubation with NMC-P1 peptide [2, 7]: abolished the binding | binding of mAb to plate-bound NMC-P1 after pre-incubation with NMC-P2 peptide [2, 7]: did not affect the binding | binding of mAb to plate-bound NMC-P1 after pre-incubation with NMC-P3 peptide [2, 7]: did not affect the binding | binding to NMC-P1 peptide [2]: bound; also recorded: strong binding | relative binding (reactivity) to intact cells, cell-ELISA [3]: reactivity | binding to intact normal cells, cell-ELISA [4]: virtually no binding | relative binding (reactivity) to intact cells, cell-ELISA [5]: reactivity | reactivity with recombinant full-length HDM2-GST protein (immunoblot) [6]: reacted

binding to NMC-P2 peptide [1]: bound; also recorded: strong binding | binding to NMC-P1 peptide [2]: did not bind | reactivity with recombinant full-length HDM2-GST protein (immunoblot) [6]: reacted
B2: NMC-204: mouse monoclonal antibody of the IgG3 isotype that binds to NMC-P2 (SEQ ID NO:2); VH SEQ ID NO:38, VL SEQ ID NO:39 (antibody, V domains shown)
VH: EVQLQESGSVLVRPGASVKLSCKASGDTLSGSWMHWAMQRPGQGLEWIGEIHLNRGTTNYNEKFKGKATVTVDTSSSTAYVDLSSLTSEDSAVYYCARSPGFAYWGQGTLVTVSA
VL: GIVMTQAAPSVPVTPGESVSISCRSSKSLLHSNGNSYLYWFLQRPGQSPQLLIYRMSNLASGVPDRFSGSGSGTAFTLRITRVEAEDVGVYYCMQHLEYPFTFGSGTKLEIK
modifications: mAb NMC-204 Heavy Chain Variable Region; mAb NMC-204 Light Chain Variable Region
relative binding (reactivity) to intact cells, cell-ELISA [3]: reactivity | binding to intact normal cells, cell-ELISA [4]: did not react; also recorded: virtually no binding | relative binding (reactivity) to intact cells, cell-ELISA [5]: reactivity
